Tests used:
[1] = system: PC3-PIP xenografts (PSMA and GRPR expressing); assay: in vivo; design: species or system BALB/c nu/nu mice; conditions: female, BALB/c nu/nu, mouse, iv, 50 pmol/mouse
Experimental: (§1) All animal experiments were planned and performed in accordance with the Swedish national legislation on the protection of laboratory animals and the study plans were approved by the Ethics Committee for Animal Research in Uppsala. Euthanasia was performed by the intraperitoneal injection of a ketamine-xylazine (Ketalar-Rompun) solution (200 mg/kg ketamine/Ketalar and 20 mg/kg xylazine/Rompun), and all efforts were made to minimize suffering. Prior to implantation, female outbred BALB/c nu/nu mice (n = 30) were quarantined for 1 week. The average animal weight at the time of the experiment was 16 ± 1 g. Xenografts expressing both PSMA and GRPR were established by the subcutaneous injection of ~0.8 × 10^7 PC3-PIP cells/mouse. Tumors were grown for 7 days and the average tumor weight at the time of the experiment was 0.3 ± 0.1 g. Before the experiments, animals were randomized into groups of four. Blood, salivary glands, lung, liver, spleen, pancreas, stomach, small intestines, kidneys, muscle, bone, and tumor samples were collected for radioactivity measurements. The gastrointestinal tract with content and the rest of the carcass were also collected. The activity of samples was measured together with the injection standard.
(§2) To evaluate the biodistribution over time, three groups of mice were intravenously co-injected through the tail vein with ^111In-6 and ^68Ga-6 (300 kBq for ^68Ga-6 and 40 kBq for ^111In-6) and sacrificed 1, 3, and 24 h pi. The total injected peptide mass was adjusted to 50 pmol/mouse.

PSMA [2] = molecular target: T1, PSMA (Homo sapiens, UniProt Q04609); assay: Competitive binding assay (IC50) towards PSMA on PC3-PIP cells
T1 construct: expressed in transfected cells; host or cells: PC3-PIP cells (PC-3 derived, kept under puromycin selection; obtained from Dr. Warren Heston, Cleveland Clinic)
T1 sequence (Q04609 whole entry): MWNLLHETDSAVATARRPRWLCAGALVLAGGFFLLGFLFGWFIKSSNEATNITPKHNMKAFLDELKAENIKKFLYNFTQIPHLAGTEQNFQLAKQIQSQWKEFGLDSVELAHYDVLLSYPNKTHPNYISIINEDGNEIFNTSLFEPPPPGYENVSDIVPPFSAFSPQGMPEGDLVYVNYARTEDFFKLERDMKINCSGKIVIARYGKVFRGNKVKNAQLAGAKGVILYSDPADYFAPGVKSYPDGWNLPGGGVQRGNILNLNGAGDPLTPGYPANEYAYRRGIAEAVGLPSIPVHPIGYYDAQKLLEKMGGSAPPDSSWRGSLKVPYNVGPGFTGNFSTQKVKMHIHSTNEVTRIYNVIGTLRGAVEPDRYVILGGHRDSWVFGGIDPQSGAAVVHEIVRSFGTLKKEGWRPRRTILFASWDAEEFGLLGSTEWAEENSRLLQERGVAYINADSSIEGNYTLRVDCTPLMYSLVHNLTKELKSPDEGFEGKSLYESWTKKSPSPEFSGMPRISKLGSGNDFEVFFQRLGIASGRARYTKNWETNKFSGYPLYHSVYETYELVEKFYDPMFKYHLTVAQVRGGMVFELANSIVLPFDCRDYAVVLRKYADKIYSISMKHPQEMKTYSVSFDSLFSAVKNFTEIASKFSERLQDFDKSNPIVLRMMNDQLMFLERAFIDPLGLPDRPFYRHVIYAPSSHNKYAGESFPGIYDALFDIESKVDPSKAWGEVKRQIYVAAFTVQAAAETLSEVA
Experimental: (§3) The half-maximal inhibitory concentration (IC50) values towards PSMA and GRPR were determined for ^natIn-6 using PC3-PIP cells. ^111In-PSMA-617 was used as a displacement radioligand for PSMA and ^111In-DOTA-PEG2-RM26 was used for GRPR, respectively. Due to the presence of both targets on PC3-PIP cells, in each experiment, the secondary target was blocked with either 1 mM solution of NOTA-PEG6-RM26 or 2 mM PSMA-11. For comparison, the IC50 values were determined for the corresponding monomers towards PSMA and GRPR under the same experimental conditions. Briefly, cell monolayers were incubated with the radioligand (1 nM) at 4 °C for 5 h in the presence of increasing concentrations of ^natIn-loaded conjugates (0–540 nM for GRPR-targeting analogs, and 0–7500 nM for PSMA-targeting, respectively). Following incubation, cells were collected and the cell-associated radioactivity was measured in an automated gamma-counter. The IC50 values were calculated by nonlinear regression using GraphPad Prism software (GraphPad Software Inc., San Diego, CA, USA).

in vivo = assay: in vivo; design: species or system BALB/c nu/nu mice; conditions: female, BALB/c nu/nu, mouse, iv, 50 pmol/mouse, total radioactivity, Tumor-to-organ ratio
Experimental: as §1, §2

GRPR = GRPR (Homo sapiens, UniProt P30550)
Sequence of GRPR (P30550 whole entry): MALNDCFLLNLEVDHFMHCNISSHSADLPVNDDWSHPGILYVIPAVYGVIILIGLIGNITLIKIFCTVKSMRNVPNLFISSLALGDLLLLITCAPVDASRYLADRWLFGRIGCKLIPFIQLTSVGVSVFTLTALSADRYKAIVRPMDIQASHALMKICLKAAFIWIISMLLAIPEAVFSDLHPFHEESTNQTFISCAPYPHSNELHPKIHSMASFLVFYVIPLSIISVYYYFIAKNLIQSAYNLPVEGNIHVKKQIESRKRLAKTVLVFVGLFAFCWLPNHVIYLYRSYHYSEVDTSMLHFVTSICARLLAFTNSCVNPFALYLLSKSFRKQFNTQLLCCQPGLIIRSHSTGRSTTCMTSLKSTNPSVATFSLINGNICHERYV
Experimental: as §3

PSMA [3] = conditions: 1 h pi; cited from earlier work

CC(C)C[C@H](NC(=O)C[C@H](O)[C@H](CC(C)C)NC(=O)[C@H](Cc1c[nH]cn1)NC(=O)CNC(=O)[C@@H](NC(=O)[C@H](C)NC(=O)[C@H](Cc1c[nH]c2ccccc12)NC(=O)[C@H](CCC(N)=O)NC(=O)[C@@H](Cc1ccccc1)NC(=O)CCOCCOCCOCCOCCOCCOCCNC(=O)[C@H](CCCCNC(=O)CN1CCN(CC(=O)O)CCN(CC(=O)O)CC1)NC(=O)CCCCCCCNC(=O)CC[C@H](NC(=O)N[C@@H](CCC(=O)O)C(=O)O)C(=O)O)C(C)C)C(N)=O [68Ga-6, metal not drawn]
Tumor-to-organ ratio, Blood ([1]; 1 h): 24±3 | Tumor-to-organ ratio, Bone ([1]; 1 h): 30±11 | Tumor-to-organ ratio, Kidneys ([1]; 1 h): 1.2±0.1 | Tumor-to-organ ratio, Liver ([1]; 1 h): 5.9±0.9 | Tumor-to-organ ratio, Lung ([1]; 1 h): 15±3 | Tumor-to-organ ratio, Muscle ([1]; 1 h): 78±28 | Tumor-to-organ ratio, Pancreas ([1]; 1 h): 4.4±0.6 | Tumor-to-organ ratio, Salivary glands ([1]; 1 h): 43±8 | Tumor-to-organ ratio, Small intestine ([1]; 1 h): 11±3 | Tumor-to-organ ratio, Spleen ([1]; 1 h): 16±4 | Tumor-to-organ ratio, Stomach ([1]; 1 h): 10±4 | Tumor-to-organ ratio, Blood ([1]; 3 h): 44±6 | Tumor-to-organ ratio, Bone ([1]; 3 h): 67±21 | Tumor-to-organ ratio, Kidneys ([1]; 3 h): 0.9±0.2 | Tumor-to-organ ratio, Liver ([1]; 3 h): 4±1 | Tumor-to-organ ratio, Lung ([1]; 3 h): 28±17 | Tumor-to-organ ratio, Muscle ([1]; 3 h): 128±57 | Tumor-to-organ ratio, Pancreas ([1]; 3 h): 18±6 | Tumor-to-organ ratio, Salivary glands ([1]; 3 h): 43±8 | Tumor-to-organ ratio, Small intestine ([1]; 3 h): 33±27 | Tumor-to-organ ratio, Spleen ([1]; 3 h): 11±1 | Tumor-to-organ ratio, Stomach ([1]; 3 h): 45±39

CC(C)C[C@H](NC(=O)C[C@H](O)[C@H](CC(C)C)NC(=O)[C@H](Cc1c[nH]cn1)NC(=O)CNC(=O)[C@@H](NC(=O)[C@H](C)NC(=O)[C@H](Cc1c[nH]c2ccccc12)NC(=O)[C@H](CCC(N)=O)NC(=O)[C@@H](Cc1ccccc1)NC(=O)CCOCCOCCOCCOCCOCCOCCNC(=O)[C@H](CCCCNC(=O)CN1CCN(CC(=O)O)CCN(CC(=O)O)CC1)NC(=O)CCCCCCCNC(=O)CC[C@H](NC(=O)N[C@@H](CCC(=O)O)C(=O)O)C(=O)O)C(C)C)C(N)=O [compound 6, Glu-Urea-Glu-Aoc-Lys(NOTA)-(PEG)6-RM26]
fold change of IC50 for PSMA, heterodimer vs monomer (PSMA [2]; dimerization effect): 5 fold

CC(C)C[C@H](NC(=O)C[C@H](O)[C@H](CC(C)C)NC(=O)[C@H](Cc1c[nH]cn1)NC(=O)CNC(=O)[C@@H](NC(=O)[C@H](C)NC(=O)[C@H](Cc1c[nH]c2ccccc12)NC(=O)[C@H](CCC(N)=O)NC(=O)[C@@H](Cc1ccccc1)NC(=O)CCOCCOCCOCCOCCOCCOCCNC(=O)[C@H](CCCCNC(=O)CN1CCN(CC(=O)O)CCN(CC(=O)O)CC1)NC(=O)CCCCCCCNC(=O)CC[C@H](NC(=O)N[C@@H](CCC(=O)O)C(=O)O)C(=O)O)C(C)C)C(N)=O [111In-6, metal not drawn]
tissue to tissue ratio at 1 h (in vivo; Blood): 30 ± 4 | tissue to tissue ratio at 24 h (in vivo; Blood): 192 ± 66 | tissue to tissue ratio at 3 h (in vivo; Bone): 52 ± 22 | tissue to tissue ratio at 24 h (in vivo; Bone): 19 ± 15 | tissue to tissue ratio at 1 h (in vivo; Kidneys): 1.2 ± 0.2 | tissue to tissue ratio at 3 h (in vivo; Kidneys): 1.4 ± 0.2 | tissue to tissue ratio at 24 h (in vivo; Kidneys): 0.6 ± 0.1 | tissue to tissue ratio at 24 h (in vivo; Liver): 4.8 ± 0.8 | tissue to tissue ratio at 24 h (in vivo; Lung): 34 ± 11 | tissue to tissue ratio at 1 h (in vivo; Muscle): 101 ± 25 | tissue to tissue ratio at 3 h (in vivo; Muscle): 210 ± 90 | tissue to tissue ratio at 24 h (in vivo; Muscle): 72 ± 59 | tissue to tissue ratio at 1 h (in vivo; Pancreas): 3.5 ± 0.8 | tissue to tissue ratio at 3 h (in vivo; Pancreas): 21 ± 1 | tissue to tissue ratio at 24 h (in vivo; Pancreas): 16 ± 2 | tissue to tissue ratio at 1 h (in vivo; Salivary glands): 72 ± 13 | tissue to tissue ratio at 24 h (in vivo; Salivary glands): 26 ± 4 | tissue to tissue ratio at 1 h (in vivo; Small intestine): 12 ± 4 | tissue to tissue ratio at 3 h (in vivo; Small intestine): 42 ± 9 | tissue to tissue ratio at 24 h (in vivo; Small intestine): 27 ± 6 | tissue to tissue ratio at 24 h (in vivo; Spleen): 30 ± 16 | tissue to tissue ratio at 1 h (in vivo; Stomach): 10 ± 3 | tissue to tissue ratio at 3 h (in vivo; Stomach): 29 ± 12 | tissue to tissue ratio at 24 h (in vivo; Stomach): 61 ± 52 | Tumor-to-organ ratio, Bone ([1]; 1 h): 75±50 | Tumor-to-organ ratio, Liver ([1]; 1 h): 22±4 | Tumor-to-organ ratio, Lung ([1]; 1 h): 32±3 | Tumor-to-organ ratio, Spleen ([1]; 1 h): 44±6 | Tumor-to-organ ratio, Blood ([1]; 3 h): 115±13 | Tumor-to-organ ratio, Liver ([1]; 3 h): 20±2 | Tumor-to-organ ratio, Lung ([1]; 3 h): 64±30 | Tumor-to-organ ratio, Salivary glands ([1]; 3 h): 93±10 | Tumor-to-organ ratio, Spleen ([1]; 3 h): 59±16

CC(C)C[C@H](NC(=O)C[C@H](O)[C@H](CC(C)C)NC(=O)[C@H](Cc1c[nH]cn1)NC(=O)CNC(=O)[C@@H](NC(=O)[C@H](C)NC(=O)[C@H](Cc1c[nH]c2ccccc12)NC(=O)[C@H](CCC(N)=O)NC(=O)[C@@H](Cc1ccccc1)NC(=O)CCOCCOCCOCCOCCOCCOCCNC(=O)[C@H](CCCCNC(=O)CN1CCN(CC(=O)O)CCN(CC(=O)O)CC1)NC(=O)CCCCCCCNC(=O)CC[C@H](NC(=O)N[C@@H](CCC(=O)O)C(=O)O)C(=O)O)C(C)C)C(N)=O [natIn-6, metal not drawn]
fold change of IC50 for GRPR, heterodimer vs monomer (GRPR; dimerization effect): 10 fold | IC50 (GRPR; read-out: IC50 towards GRPR, PC3-PIP cells, 4 °C, 5 h, PSMA blocked, natIn-loaded conjugates): 4 ± 1 nM | IC50 (PSMA [2]; read-out: IC50 towards PSMA, PC3-PIP cells, 4 °C, 5 h, radioligand 111In-PSMA-617, GRPR blocked, natIn-loaded conjugates): 824 ± 230 nM

O=C([O-])CN(CCN(CC(=O)[O-])Cc1cc(CCC(=O)NCCCCCC(=O)NCCCC[C@H](NC(=O)N[C@@H](CCC(=O)O)C(=O)O)C(=O)O)ccc1[O-])Cc1cc(CCC(=O)O)ccc1[O-].[68Ga+3].[OH3+] [^68Ga-PSMA-11]
activity uptake in the kidneys relative to tumors (PSMA [3]): 20 fold

O=C([O-])CN1CCN(CC(=O)[O-])CCN(CC(=O)NC[C@H]2CC[C@H](C(=O)N[C@@H](Cc3ccc4ccccc4c3)C(=O)NCCCC[C@H](NC(=O)N[C@@H](CCC(=O)O)C(=O)O)C(=O)O)CC2)CCN(CC(=O)[O-])CC1.[68Ga+3] [^68Ga-PSMA-617]
activity uptake in the kidneys relative to tumors (PSMA [3]): 8 fold
